Laboratory results reported in patent US20160122426A1 (DONG A SOCIO, published 2016).

Columns and labels:
mouse VEGF = target: T1, mouse VEGF (mouse, UniProt Q00731-2 27-190); test: ELISA, 0.2 µg/ml VEGF coated, scFv or IgG serially diluted
T1 construct: Bought recombinant protein; also called mVEGF-A; mouse VEGF-A
T1 sequence (looked up): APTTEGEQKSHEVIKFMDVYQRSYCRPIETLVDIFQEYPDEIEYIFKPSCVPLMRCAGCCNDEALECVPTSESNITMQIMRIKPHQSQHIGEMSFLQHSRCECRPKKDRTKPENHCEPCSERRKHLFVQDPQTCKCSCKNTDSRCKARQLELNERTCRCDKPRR
Experimental: ELISA plates were coated with 0.2 μg/ml of human VEGF and mouse VEGF (R&D systems, USA) respectively, and the purified proteins obtained in Example 5 in the form of scFv expressed by HB2151 or IgG expressed by 293F cells were incubated at serially diluted concentrations.

human VEGF = target: T2, human VEGF (human, UniProt P15692-4 27-191); test: ELISA, human VEGF coated, anti-human Fc-HRP, absorbance 450 nm [a]
T2 construct: Bought recombinant protein; also called hVEGF; human VEGF-A
Experimental: 1.5 ng of human VEGF diluted in 150 μL of buffer solution was placed in 96-well immune plate (Nunc, USA), and adsorbed at 4° C. overnight, followed by washing 3 times with a buffer solution containing 0.1% Tween 20. Then, they were reacted with a buffer solution including 1% bovine serum albumin (Sigma, USA) for 1 hr at room temperature, and washed 3 times. Then each well was treated with 150 μL of serially diluted antibody (1 ng/mL, 10 ng/mL, 30 ng/mL, 100 ng/mL, 1000 ng/mL and 3000 ng/mL) They were allowed to react for 1 hr at room temperature so that antigens may bind to antibodies, followed by washing 3 times with a buffer solution.
Each well was treated at 150 μL per well with anti-human immunoglobulin Fc-HRP antibody (AbSerotec, USA) diluted 1:20000 and allowed to react for 1 hr at room temperature. After the reaction was completed, washing was performed 3 times with a buffer solution, followed by addition of 150 μL of TMB (Sigma, USA) and color development for 10 min. The reaction was terminated with 1N sulfuric acid solution, and absorbance was measured at 450 nm using a spectrophotometer (Molecular Device, USA).

B1: clone F (antibody, V domains shown)
VH: AVTLHESGGGLQTPGGALSLVCKASGFTFSSHGMQWVRQAPGKGLEYVAGISSDGSWTGYGAAVKGRATISRDNGQSTVRLQLNNLRAEDTATYYCARDFSTSYGADSIDAWGHGTEVIVSS
VL: LTQPSSVSANPGETVKITCSGGSNSAYGYGWYQQKSPGSAPVTLIYWDDKRPSDIPSRFSGSASGSTATLTITGVRAEDEAVYFCGAWEYSSDVGIFGAGTTLTVL
notes: Clone from an immunized chicken scFv phage library; also called mother clone F; F clone
B1: binds (mouse VEGF); binds (human VEGF).
